Assay results as given in the supplement of paper PMC9112550, “Optimization of the antimicrobial peptide Bac7 by deep mutational scanning” (BMC Biology, 2022).

Tested on: Escherichia coli TOP10
Experiment: shrunken log2 fold change of peptide-encoding DNA abundance (4.5 h post-induction vs induction); higher = less antimicrobial activity (less host growth inhibition)
Settings: time post-induction: 4.5 h; library: site-saturation at positions 5, 18, 19, 20
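Further: peptides expressed intracellularly from a pBAD plasmid library in pooled LB shake-flask culture, induced with 0.3% L-arabinose, DNA abundance read by NGS, three biological replicates, DESeq2 with apeglm shrinkage.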

Sequence | shrunken log2 fold change
RRIRWRPPRLPRPRPRPHDEPRP | -0.2
RRIRIRPPRLPRPRPRPLGGPRP | 0.00908
RRIRNRPPRLPRPRPRPPDIPRP | -0.341
RRIRQRPPRLPRPRPRPAVTPRP | 0.167
RRIRSRPPRLPRPRPRPRKCPRP | 0.149
RRIRSRPPRLPRPRPRPHVWPRP | 0.0587
RRIRRRPPRLPRPRPRPGYYPRP | -0.105
RRIRFRPPRLPRPRPRPFIKPRP | -0.648
RRIRERPPRLPRPRPRPNVSPRP | -0.00968
RRIRDRPPRLPRPRPRPMLIPRP | -0.0943
RRIRWRPPRLPRPRPRPFRLPRP | -0.394
RRIRDRPPRLPRPRPRPIYNPRP | -0.771
RRIRFRPPRLPRPRPRPWPAPRP | -0.0371
RRIRMRPPRLPRPRPRPFSVPRP | -0.0472
RRIRMRPPRLPRPRPRPMERPRP | -0.0334
RRIRFRPPRLPRPRPRPFYDPRP | -0.0631
RRIRARPPRLPRPRPRPLSVPRP | -0.0782
RRIRQRPPRLPRPRPRPVLYPRP | 0.0138
RRIRERPPRLPRPRPRPWQAPRP | 0.00281
RRIRSRPPRLPRPRPRPMKSPRP | 0.328
RRIRCRPPRLPRPRPRPTLMPRP | -0.0222
RRIRRRPPRLPRPRPRPTMNPRP | -0.0748
RRIRWRPPRLPRPRPRPMCRPRP | -0.117
RRIRVRPPRLPRPRPRPQNTPRP | -0.524
RRIRERPPRLPRPRPRPNREPRP | -0.0209

Sequence | shrunken log2 fold change
RRIRVRPPRLPRPRPRPKRAPRP | 0.553
RRIRTRPPRLPRPRPRPFGYPRP | 0.0679
RRIRKRPPRLPRPRPRPHFEPRP | 0.101
RRIRVRPPRLPRPRPRPPWNPRP | 0.0143
RRIRPRPPRLPRPRPRPVPIPRP | 0.0844
RRIRERPPRLPRPRPRPGDWPRP | 0.212
RRIRIRPPRLPRPRPRPSYTPRP | -1.06
RRIRDRPPRLPRPRPRPCFHPRP | -0.336
RRIRQRPPRLPRPRPRPPWGPRP | 0.242
RRIRERPPRLPRPRPRPDSAPRP | -0.213
RRIRTRPPRLPRPRPRPIFGPRP | -0.0261
RRIRWRPPRLPRPRPRPGLGPRP | 0.83
RRIRFRPPRLPRPRPRPSFLPRP | -0.572
RRIRARPPRLPRPRPRPRPMPRP | 0.771
RRIRPRPPRLPRPRPRPVFGPRP | 0.206
RRIRSRPPRLPRPRPRPQANPRP | -0.0559
RRIRGRPPRLPRPRPRPIMQPRP | 0.105
RRIRIRPPRLPRPRPRPQALPRP | -0.0788
RRIRNRPPRLPRPRPRPFLPPRP | -0.354
RRIRDRPPRLPRPRPRPSNLPRP | -0.0257
RRIRARPPRLPRPRPRPGYTPRP | 0.324
RRIRHRPPRLPRPRPRPRYFPRP | -0.439
RRIRHRPPRLPRPRPRPGQDPRP | 0.0217
RRIRWRPPRLPRPRPRPENGPRP | -0.109
RRIRGRPPRLPRPRPRPSIVPRP | 0.124

Sequence | shrunken log2 fold change
RRIRLRPPRLPRPRPRPYTWPRP | -0.716
RRIRYRPPRLPRPRPRPIELPRP | -0.0405
RRIRCRPPRLPRPRPRPTQQPRP | -0.0719
RRIRCRPPRLPRPRPRPYHLPRP | -0.0832
RRIRPRPPRLPRPRPRPAAGPRP | 0.287
RRIRSRPPRLPRPRPRPFMTPRP | -0.328
RRIRNRPPRLPRPRPRPMFRPRP | -0.0515
RRIRKRPPRLPRPRPRPLMEPRP | 0.124
RRIRPRPPRLPRPRPRPYASPRP | -0.0775
RRIRCRPPRLPRPRPRPAPCPRP | 0.122
RRIRQRPPRLPRPRPRPAWKPRP | 0.0232
RRIRMRPPRLPRPRPRPQHFPRP | 0.00913
RRIRGRPPRLPRPRPRPLAWPRP | 1.43
RRIRFRPPRLPRPRPRPKKDPRP | 0.184
RRIRLRPPRLPRPRPRPGWMPRP | 0.0923
RRIRMRPPRLPRPRPRPYFFPRP | -0.175
RRIRMRPPRLPRPRPRPLKLPRP | 0.0525
RRIRKRPPRLPRPRPRPESPPRP | 0.188
RRIRDRPPRLPRPRPRPSRLPRP | 0.0232
RRIRRRPPRLPRPRPRPSVVPRP | 0.15
RRIRQRPPRLPRPRPRPGGIPRP | 0.0484
RRIRTRPPRLPRPRPRPIPWPRP | -0.0529
RRIRTRPPRLPRPRPRPQNCPRP | -0.373
RRIRDRPPRLPRPRPRPPCSPRP | 0.126
RRIRARPPRLPRPRPRPAKHPRP | 0.558
